Experimental data published in the supplement of paper PMC10724198.
± gives the standard deviation of the averaged measurements.

Tested on: Saccharomyces cerevisiae
Assay: protein stability index of tFT-peptide fusion (C-terminal peptide) (PSI (0-1 scale)); higher = more stable (slower turnover)
Settings: genetic background: wild type; temperature: 30 C
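Note: PSI is a weighted mean of sequencing reads over stability bins, variants kept only with over 10 reads, mCherry proximal and sfGFP distal, peptide attached via GGGS linker.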

Sequence | protein stability index
PPPHPPRPPVPR | 0.697 ± 0.016
PPPHRPPPRPPR | 0.697 ± 0.0094
PPPHSPLPAPPR | 0.76 ± 0.086
PPPLASLSPASP | 0.624 ± 0.05
PPPLATPTPTRP | 0.688 ± 0.17
PPPLLPPHPPGL | 0.701 ± 0.0096
PPPLLPPLDAPS | 0.721 ± 0.083
PPPLLSPAFFLP | 0.727 ± 0.053
PPPLPGSLLPLP | 0.72349 ± 0.00037
PPPLPPLPTALS | 0.693 ± 0.0036
PPPLPPRMPPPF | 0.72 ± 0.036
PPPLPRSPPPPF | 0.74 ± 0.021
PPPLPSSPSPLL | 0.679 ± 0.022
PPPLSLTPPFLY | 0.673 ± 0.074
PPPLSPPTPPPP | 0.674 ± 0.049
PPPLSSPGPPPL | 0.704 ± 0.014
PPPLTPSPPPPP | 0.663 ± 0.021
PPPLTYPTSPPS | 0.661 ± 0.019
PPPNLSSGVPFI | 0.7051 ± 0.0025
PPPPALWPPPSP | 0.735 ± 0.013
PPPPASPPHAPP | 0.653 ± 0.07

Sequence | protein stability index
PPPPFPLPSPSL | 0.655 ± 0.022
PPPPGKTDRPSH | 0.695 ± 0.055
PPPPGPGSAPPP | 0.59 ± 0.065
PPPPGPPPLPLP | 0.764 ± 0.058
PPPPGSKPPPSP | 0.722 ± 0.028
PPPPHPPFPPRF | 0.722 ± 0.047
PPPPHPPPSLRA | 0.67716 ± 6e-05
PPPPHRSHLPHS | 0.697 ± 0.03
PPPPLPPAPPLP | 0.6607 ± 8.2e-05
PPPPLPPRPSPP | 0.71 ± 0.074
PPPPLPSFPSSS | 0.858 ± 0.062
PPPPLTPPHLSP | 0.713 ± 0.039
PPPPPAPLPSSL | 0.671 ± 0.02
PPPPPCSPPSPP | 0.681 ± 0.025
PPPPPHPPPHTR | 0.678 ± 0.017
PPPPPLHSSPWL | 0.737 ± 0.14
PPPPPLLLPPPA | 0.651 ± 0.038
PPPPPLLTRPLP | 0.699 ± 0.081
PPPPPLPRSSLS | 0.6968 ± 0.0041
PPPPPPAPPSPA | 0.726 ± 0.051
PPPPPPHPLLST | 0.708 ± 0.073

Sequence | protein stability index
PPPPPPLFPSPP | 0.772 ± 0.13
PPPPPPLHATPL | 0.6969 ± 0.0065
PPPPPPLSPCPS | 0.704 ± 0.099
PPPPPPLSRTST | 0.723 ± 0.082
PPPPPPPALPSL | 0.6668 ± 0.0034
PPPPPPPAPPPC | 0.7243 ± 0.0033
PPPPPPPDPVPP | 0.645 ± 0.039
PPPPPPPHPPHL | 0.728 ± 0.031
PPPPPPPLVPPS | 0.595 ± 0.036
PPPPPPPPCGTP | 0.633 ± 0.014
PPPPPPPPPCSP | 0.7052 ± 0.0024
PPPPPPPPPPPL | 0.677 ± 0.028
PPPPPPPPPPTL | 0.712 ± 0.028
PPPPPPPPRLTP | 0.754 ± 0.074
PPPPPPPPRPLL | 0.787 ± 0.16
PPPPPPPPSSSL | 0.6819 ± 0.0041
PPPPPPPSPLAP | 0.707 ± 0.015
PPPPPPSPPLSP | 0.677 ± 0.028
PPPPPPSPPPSP | 0.633 ± 0.044
PPPPPPYHPTPP | 0.6685 ± 0.0011
PPPPPRAPPLPP | 0.679 ± 0.029

Sequence | protein stability index
PPPPPRAPSLLA | 0.704 ± 0.03
PPPPPRPSPRPS | 0.796 ± 0.013
PPPPPSRPPPAL | 0.7405 ± 0.0049
PPPPPSSPPALL | 0.663 ± 0.058
PPPPPTFPVLTS | 0.603 ± 0.046
PPPPPTLPSCLS | 0.689 ± 0.063
PPPPPTRLPQNS | 0.694 ± 0.062
PPPPRPLPSSNG | 0.76 ± 0.049
PPPPRPPATPFP | 0.676 ± 0.052
PPPPRPPPPATL | 0.662 ± 0.02
PPPPRPPPVPPF | 0.61 ± 0.048
PPPPRPPRDPPR | 0.6629 ± 0.00098
PPPPRPSPPPPS | 0.694 ± 0.028
PPPPRPSSPLIL | 0.741 ± 0.021
PPPPRSSPSPLP | 0.668 ± 0.077
PPPPRVLSPAWS | 0.649 ± 0.072
PPPPSLAPRSAL | 0.724 ± 0.048
PPPPSLLPPSPS | 0.702 ± 0.068
